Experimental data from publication PMC7616481, “The functional evolution of collembolan Ubx on the regulation of abdominal appendage formation”.

What was measured:
[1] = molecular target: FcUbx isoform 1 (FcU1, FcUbx1), N-terminally truncated (Folsomia candida, UniProt A0AA95ZMF5 39-293); assay: EMSA; 0.2-1.5 pmol FcU1; 20 ul with EMSA buffer (5x: 0.1 M Tris, 25% glycerol, 0.2 mg/ml BSA), MgCl2 (2.5 M stock), DTT (1 M stock), poly(dI-dC), 20 ng Cy5 probe; 25 min at 25 C; 12% native PAGE on ice; pH not stated; settings: protein: recombinant; tags: GST; label: 5'-Cy5 (both strands)
[2] = molecular target: FcUbx isoform 2 (FcU2, FcUbx2), N-terminally truncated (Folsomia candida, UniProt A0AA96CC73 39-288); assay: EMSA; 0.4-3 pmol FcU2; 20 ul with EMSA buffer (5x: 0.1 M Tris, 25% glycerol, 0.2 mg/ml BSA), MgCl2 (2.5 M stock), DTT (1 M stock), poly(dI-dC), 20 ng Cy5 probe; 25 min at 25 C; 12% native PAGE on ice; pH not stated; settings: protein: recombinant; tags: GST; label: 5'-Cy5 (both strands)

B1: DMXR (dsDNA)
DNA 1: GACAATATTTGGGAAATTAAATCATTCCCGCGGACAGTTTTATAGTGC
DNA 2: GCACTATAAAACTGTCCGCGGGAATGATTTAATTTCCCAAATATTGTC
[1]
  binding result: binds
[2]
  binding result: binds
